# From paper PMC6123711, “Conformational signatures in β-arrestin2 reveal natural biased agonism at a G-protein-coupled receptor” (Communications Biology, 2018)
# B1: Spexin (peptide, UniProt Q9BT56 27-116, looked up)
# Spexin: APQRLLERRNWTPQAMLYLKGAQGRRFISDQSRRKDLSDRPLPERRSPNPQLLTIPEAATILLASLQKSPEDEEKNFDQTRFLEDSLLNW
# modifications: Spexin
# notes: endogenous peptide ligand of Galr2 and Galr3; synthesized by AnyGen
# Columns and labels:
# [1] = tested on: Galr2; assay: Gαq-dependent Erk1/2 phosphorylation (β-arrestin1/2-knockout HEK293 cells); type: cell-based, human; details: for ΔLog(τ/KA), Gαq-dependent-pErk1/2: normalized to Galanin (reference agonist), in parenthesis, mean ± s.e.m. of three experiments in triplicate; for Log(τ/KA), Gαq-dependent-pErk1/2: western blot, 5 min stimulation, operational model (Eq. 2), mean ± s.e.m. of three experiments in triplicate (table footnote)
# Text: (§1) Galr2 is primarily coupled to the Gαq-protein which activates the phospholipase C/protein kinase C pathway for inositol phosphate production. We measured G-protein activation in HEK293 cells transiently expressing Galr2, using the serum response element-luciferase (SRE-Luc) gene reporter assay[10],[37] and for a more specific monitoring of Gαq-protein activity we also measured total inositol phosphate production. […] However, some differences were observed between SRE-Luc activity and total inositol phosphate production in the rank order of potency of the tested ligands. […] Phosphorylation of extracellular signal-regulated protein kinases 1 and 2 (pErk1/2) is either G-protein or β-arrestin dependent. To distinguish Gαq-protein- and β-arrestin1/2-dependent Erk1/2 signaling, we examined ligand-stimulated Erk1/2 phosphorylation in three different HEK293 cell lines, wild type, Gαq/11-knockout, and β-arrestin1/2-knockout cells. All three ligands induced high levels of Erk1/2 phosphorylation dose-dependently in wild-type HEK293 cells.
# (§2) Fig. 5 Galr2 agonists display different Gαq-protein-dependent signaling and pErk1/2. The ability of increasing concentrations of agonists to induce a SRE-Luc activity and b total inositol phosphate production. c Representative western blot showing ligand-induced phosphorylation of Erk1/2 from wild-type (HEK293 WT), Gαq/11-, and β-arrestin1/2-knockout HEK293 cells expressing Galr2 (original blots are presented in Supplementary Figure 4). pErk1/2 and total Erk levels were determined at 5 min after stimulation of different concentrations of three ligands. Western blot band intensities corresponding to each concentration were quantified using Image studio ^TM Software. […] Data are the mean ± s.e.m. values of two independent experiments
# pErk1/2 was measured using western blot assay. HEK293 Gαq/11 and β-arrestin1/2-knockout cells were a kind gift from Professor Asuka Inoue, Tohoku University. The cells were seeded into 6-well plates at a density of 6 × 10^5 cells per well. The next day, they were transfected using 2 μg/well of plasmid containing human Galr2 cDNA and Lipofectamine 2000, according to the manufacturer’s instructions. Before assay, the cells were washed with phosphate-buffered saline and incubated in serum-free DMEM overnight. Dose–response experiments were performed for each ligand at 37 °C. Stimulation of the cells was terminated after 5 min of agonist stimulation by removing the medium, and the addition of 250 μl cold lysis buffer to each well. Immunoblots of phospho-Erk1/2 were obtained using 8 μg of total protein and p44/42 MAPK Erk1/2 antibody (Cell Signaling Technology Inc, catalog no. 4370 S); horseradish peroxidase-conjugated goat anti-rabbit IgG was used as a secondary antibody (Thermo Fisher Scientific). The proteins were visualized using enhanced chemiluminescence (GE Health Care). Image Studio ^TM Software was used for the pErk1/2 band density analysis.
# [2] = tested on: Galr2; assay: Total inositol phosphate production; type: cell-based, human; details: for Log(τ/KA), Total inositol phosphate: HEK293 cells, human Galr2, 40 min at 37 °C, operational model (Eq. 2)
# Text: as §1, §2
# Galr2 activation was monitored using measurement of total inositol phosphate (IP + IP2 + IP3) production in HEK293 cells expressing human Galr2. For this assay, cells were seeded in 12-well plates at a density of 2.5 × 10^5 cells per well. The next day, the cells were transiently transfected with 1 μg/well plasmid containing human Galr2, using the Lipofectamine 2000 (Invitrogen) transfection reagent. The day after transfection, the cells were incubated in M199 medium containing 1% FBS, 1% L-glutamine, 1% penicillin/streptomycin, and 1 μCi/well myo-^3H inositol for 20 h. After a 30-min incubation in buffer A (140 mM NaCl, 20 mM Hepes, 4 mM KCl, 8 mM D-glucose, 1 mM MgCl2, 1 mM CaCl2, 1 mg/ml free fatty acid bovine serum albumin, and 10 mM LiCl at pH 7.2), the cells were exposed to the agonist for 40 min at 37 °C. […] The radioactivity of the samples was measured using a TRI carb 3100TR liquid scintillation analyzer (Packard).
# [3] = mean ± s.e.m. of three experiments in triplicate
Molecule,"ΔLog(τ/KA), Gαq-dependent-pErk1/2 [1]","Log(τ/KA), Gαq-dependent-pErk1/2 [1]","Log(τ/KA), Total inositol phosphate [2, 3]","ΔLog(τ/KA), Total inositol phosphate ([2]; normalized to Galanin (reference agonist), in parenthesis, mean ± s.e.m. of three experiments in triplicate)","pathway responsible for agonist-induced Erk1/2 phosphorylation ([1]; from comparison of wild-type, Gαq/11- and β-arrestin1/2-knockout HEK293 cells)",efficacy in total inositol phosphate production ([2]; HEK293 cells transiently expressing Galr2)
Galanin [reference compound],0.00 ± .22,6.90 ± 0.22,4.20 ± 0.03,0.00 ± 0.02,,
B1,0.57 ± 0.22,7.47 ± 0.21,4.40 ± 0.03,,likely mainly attributable to the G-protein-dependent signaling pathway,substantially higher efficacy
